Test results published in patent US20250101134A1, “ANAPLASTIC LYMPHOMA KINASE ANTIBODIES AND METHODS OF USE THEREOF” (The Children's Hospital of Philadelphia, priority 2022, published 2025).

Experiments:
[1] = biological target: T1, ALK extracellular domain expressed on the cell surface of 293T cells (293T-ALK) (Homo sapiens, UniProt Q9UM73); experiment: cell-based or functional assay
[2] = biological target: cell surface ALK on neuroblastoma cells (IMR32, SY5Y-D3, SY5Y) (human) (UniProt Q9UM73); experiment: cell-based or functional assay
293T cells [3] = experiment: Flow cytometry binding of VHs to 293T cells (non-specific binding); conditions: VH at 1 μM, anti-FLAG-PE detection
Procedure: (§1) FIG. 1A provides a schematic of ALK. MAM1, LDLa, MAM2, G-rich, G-T domains and full-length ALK extracellular domain (ALK-Ecto) were expressed separately for phage panning. Briefly, 293T and 293T-ALK cells were stained with different VH antibodies at a concentration of 1 μM in […] PBS for 30 minutes on ice. The cells were washed with 1 mL PBS three times and incubated with anti-FLAG-PE antibody (1:200, BioLegend) for 30 minutes on ice. The FLAG tag comprises the sequence: DYKDDDDK (SEQ ID NO: 9). The stained cells were then washed with 1 mL PBS three times. Antibody binding was detected on a BD™ LSR II (BD Biosciences, San Jose, CA). Fluorescence activated cell sorting (FACS) data analysis was performed using FlowJo_V10_CL.
(§2) FIGS. 1B and 1C show the flow cytometry results with various VHs binding to ALK extracellular domain expressed on the cell surface of 293T cells (293T-ALK). VH9 and VH20 were identified with the G-rich domain antigen while VH5 and VH78 were identified with the G-T domain antigen.

[4] = Aggregation by dynamic light scattering (DLS); format: physicochemical; conditions: 5 mg/mL in PBS, 37° C., day 0 to day 14
Procedure: The 4 VHs were studied by dynamic light scattering (DLS). Briefly, VH antibodies were buffer changed with PBS and filtered with a […] filter.
Antibody concentration was adjusted to 5 mg/mL. 500 μL samples were incubated at 37° C. for DLS. Samples were measured at day 0, day 1, day 4, day 7, and day 14 on Zetasizer Nano-ZS ZEN 3600 (Malvern Instruments Limited; Malvern, UK) to determine the size distributions of protein particles.

[5] = Size exclusion chromatography (SEC); format: physicochemical; conditions: Superdex 200 Increase 10/300 GL, DPBS
Procedure: VH20 was also studied by size exclusion chromatography (SEC). 200 μL (1 μg/mL) filtered samples were used for analysis. A Superdex® 200 Increase 10/300 GL column (GE Healthcare, Cat. No. 28990944) was used for the SEC. The column was calibrated with protein molecular mass standards of ferritin (440 kDa), aldolase (158 kDa), conalbumin (75 kDa), ovalbumin (44 kDa), carbonic anhydrase (29 kDa), and ribonuclease A (13.7 kDa). Protein was eluted by Dulbecco's phosphate-buffered saline (DPBS) buffer at a flow rate of 0.5 mL/minute.
Size exclusion chromatography (SEC) was also performed to characterize VH20-OKT3-Fc BiTE. Briefly, 200 μL (1 μg/mL) filtered samples were used for analysis. Superdex® 200 Increase 10/300 GL columns (GE Healthcare, Cat. No. 28990944) were used. The column was calibrated with protein molecular mass standards of ferritin (440 kDa), aldolase (158 kDa), conalbumin (75 kDa), ovalbumin (44 kDa), carbonic anhydrase (29 kDa), and ribonuclease A (13.7 kDa). Protein was eluted by DPBS buffer at a flow rate of 0.5 mL/minute.

ALK = experiment: BLItz competition with KTN0239-IgG for ALK; format: binding; conditions: Protein A biosensor, KTN0239-IgG loaded, then ALK, then VH20
Source text: The ability of VH20 to compete with KTN0239 was also studied. KTN0239 is a humanized variant of KTN0125 (Sano et al. (2016) Cancer Res., 76(14 Suppl):Abstract2690) and can bind the G rich domain of ALK. A Protein A biosensor (18-5010, BLItz® system, ForteBio; Freemont, CA) was used to immobilization KTN0239-IgG. DPBS (pH=7.4) was used for the baseline and determine dissociation. The detection conditions used were (I) baseline 30 seconds; (II) loading KTN0239-IgG for 120 seconds; (III) baseline 30 seconds; (IV) association for 120 seconds with ALK; and (V) association for 120 seconds with VH20.

[6] = biological target: T2, cell surface ALK on IMR32 cells (Homo sapiens, UniProt Q9UM73); experiment: FACS binding to IMR32 cells; conditions: 1 μM, positive cell line
T2 construct: endogenous in cells; host or cells: IMR32
Procedure: (§3) The ability of VH20 bind ALK expressing cells was also studied by FACS. SK-N-AS (negative cell line), IMR32 (positive cell line), SY5Y-D3 (positive cell line) cells were stained with VH20 at a concentration of 1 μM in 200 μL PBS for 30 minutes on ice. The cells were washed with 1 mL PBS three times and incubated with anti-Flag-PE antibody (1:200, BioLegend) for 30 minutes on ice. The cells were again washed with 1 mL PBS three times. Antibody binding was detected on a BD™ LSR II (San Jose, CA). FACS data analysis was performed using FlowJo_V10_CL.

[7] = test system: cell surface ALK on SY5Y-D3 cells; experiment: FACS binding to SY5Y-D3 cells; conditions: 1 μM, positive cell line
Procedure: as §3

SK-N-AS cells = experiment: FACS binding to SK-N-AS cells (negative cell line); conditions: 1 μM
Procedure: as §3

293T-ALK cells [8] = experiment: Internalization of pHrodo Deep Red labelled VH20, 293T-ALK; format: cell-based; conditions: pHrodo Deep Red conjugated VH20, 24 hours, flow cytometer
Procedure: (§4) VH20 internalization was also characterized. For the internalization studies, VH20 was conjugated with pHrodo™ Deep Red dye using the pHrodo™ Deep Red Antibody Labeling Kit (Thermo). The conjugated VH20 was incubated with 293T and 293T-ALK cells for 24 hours at different concentrations. VH20 internalization was measured by a flow cytometer.

293T cells [9] = experiment: Internalization of pHrodo Deep Red labelled VH20, 293T; format: cell-based; conditions: pHrodo Deep Red conjugated VH20, 24 hours, flow cytometer
Procedure: as §4

[10] = biological target: T3, ALK-Fc, a fusion of the ALK extracellular domain and human IgG1 Fc (human, UniProt Q9UM73 19-1038); experiment: ELISA, ALK-Fc coated, anti-Flag-HRP detection
T3 construct: not shown: human IgG1 Fc
Procedure: The VHs were further characterized. First, the binding affinities of the VHs were studied in an ELISA assay using a fusion protein comprising the ALK extracellular domain fused to the human IgG1 Fc (ALK-Fc). ELISA plates (Corning 3690; Tewksbury, MA) were coated with 50 μl antigen (5 μg/ml diluted with 1×PBS) at 4° C. overnight. The next day, blocking was performed with 150 μL 5% milk-PBS (Bio-RAD; Hercules, CA) at room temperature for two hours. Then, the plates were washed with 0.05% PBST three times. 3-fold serial diluted VH antibodies (in 5% PBS-Milk) was added into each well and incubated at room temperature for 1 hour and then washed with PBST 4 times. Next, 50 μL anti-Flag-HRP (1:1000 dilution in 5% PBS-Milk, Thermo; Waltham, MA) was added into each well and incubated at room temperature for 1 hour and then washed 5 times with PBST. 50 μL 3,3′,5,5′-tetramethylbenzidine (TMB) substrate (Sigma; St. Louis, MO) was added into each well and color was allowed to develop for 1-2 minutes before stopping with 50 μL H₂SO₄ (1M, Sigma). Plates were read at 450 nm absorbance. The ELISA results were analyzed using GraphPad Prism 9.0.2.

[11] = biological target: T1, ALK extracellular domain expressed on the cell surface of 293T cells (293T-ALK); experiment: Flow cytometry binding of VHs to 293T-ALK cells; design: expressed in transfected cells; host or cells: 293T; conditions: VH at 1 μM, anti-FLAG-PE detection
Procedure: as §1, §2

293T-ALK cells [12] = experiment: Anti-ALK CAR-T cell cytotoxicity (LDH release); format: cell-based; conditions: CAR-T cells comprising the VH, effector:target 1.25:1 to 20:1, 48 hours
Procedure: The cytotoxicity of anti-ALK CAR-T cells against 293T and 293T-ALK cells was also studied. Anti-ALK CAR-T cells (effector cells) were incubated with 293T and 293T-ALK cells at the effector: target ratios of 1.25:1, 2.5:1, 5:1, 10:1 and 20:1 for 48 hours in a 96-well cell culture plate (Corning). The co-cultures of CAR-T cells with 293T cells were used as negative controls. Cytotoxicity was determined by detecting specific lactate dehydrogenase (LDH) released into the medium from the target cells with cytotoxicity LDH detection kit (Promega) according to the manufacturer's instructions. Percent cytotoxicity was calculated with the following formula: Cytotoxicity (%)=(Experimental lysis−Effector spontaneous lysis−Target spontaneous lysis)/(Target maximum lysis−Target spontaneous lysis)×100%. Anti-ALK CAR-T cells were co-cultured with 293T cells as negative controls.

T1 sequence (Q9UM73 19-1038): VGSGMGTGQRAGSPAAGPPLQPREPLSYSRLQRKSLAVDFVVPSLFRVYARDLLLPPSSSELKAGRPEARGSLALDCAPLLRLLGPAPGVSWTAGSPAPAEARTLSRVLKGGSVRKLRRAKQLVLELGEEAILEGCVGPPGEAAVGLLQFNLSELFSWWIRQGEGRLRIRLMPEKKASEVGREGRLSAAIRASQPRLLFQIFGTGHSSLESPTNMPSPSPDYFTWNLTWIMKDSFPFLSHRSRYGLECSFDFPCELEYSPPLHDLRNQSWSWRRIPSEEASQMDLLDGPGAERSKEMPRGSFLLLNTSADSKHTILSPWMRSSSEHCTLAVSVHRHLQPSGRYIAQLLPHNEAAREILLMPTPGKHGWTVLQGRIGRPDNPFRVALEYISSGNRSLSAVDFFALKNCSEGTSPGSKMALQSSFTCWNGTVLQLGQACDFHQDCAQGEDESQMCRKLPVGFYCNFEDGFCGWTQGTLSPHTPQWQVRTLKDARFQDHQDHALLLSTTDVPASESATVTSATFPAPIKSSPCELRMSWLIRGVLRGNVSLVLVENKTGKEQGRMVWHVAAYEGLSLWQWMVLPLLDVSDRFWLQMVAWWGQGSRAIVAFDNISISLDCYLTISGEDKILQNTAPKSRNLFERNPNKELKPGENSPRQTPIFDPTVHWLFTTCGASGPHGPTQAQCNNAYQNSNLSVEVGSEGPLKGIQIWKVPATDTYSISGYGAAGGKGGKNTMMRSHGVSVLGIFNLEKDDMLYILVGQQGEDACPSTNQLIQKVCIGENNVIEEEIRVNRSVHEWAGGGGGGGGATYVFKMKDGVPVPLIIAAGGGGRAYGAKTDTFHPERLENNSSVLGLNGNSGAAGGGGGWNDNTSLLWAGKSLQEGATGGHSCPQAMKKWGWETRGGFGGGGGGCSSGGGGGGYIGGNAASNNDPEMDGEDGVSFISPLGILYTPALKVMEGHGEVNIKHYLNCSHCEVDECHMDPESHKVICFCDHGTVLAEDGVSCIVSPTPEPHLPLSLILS
T3 sequence (Q9UM73 19-1038): as above
Chain of cell surface ALK on neuroblastoma cells (IMR32, SY5Y-D3, SY5Y) (human) (Q9UM73 19-1620): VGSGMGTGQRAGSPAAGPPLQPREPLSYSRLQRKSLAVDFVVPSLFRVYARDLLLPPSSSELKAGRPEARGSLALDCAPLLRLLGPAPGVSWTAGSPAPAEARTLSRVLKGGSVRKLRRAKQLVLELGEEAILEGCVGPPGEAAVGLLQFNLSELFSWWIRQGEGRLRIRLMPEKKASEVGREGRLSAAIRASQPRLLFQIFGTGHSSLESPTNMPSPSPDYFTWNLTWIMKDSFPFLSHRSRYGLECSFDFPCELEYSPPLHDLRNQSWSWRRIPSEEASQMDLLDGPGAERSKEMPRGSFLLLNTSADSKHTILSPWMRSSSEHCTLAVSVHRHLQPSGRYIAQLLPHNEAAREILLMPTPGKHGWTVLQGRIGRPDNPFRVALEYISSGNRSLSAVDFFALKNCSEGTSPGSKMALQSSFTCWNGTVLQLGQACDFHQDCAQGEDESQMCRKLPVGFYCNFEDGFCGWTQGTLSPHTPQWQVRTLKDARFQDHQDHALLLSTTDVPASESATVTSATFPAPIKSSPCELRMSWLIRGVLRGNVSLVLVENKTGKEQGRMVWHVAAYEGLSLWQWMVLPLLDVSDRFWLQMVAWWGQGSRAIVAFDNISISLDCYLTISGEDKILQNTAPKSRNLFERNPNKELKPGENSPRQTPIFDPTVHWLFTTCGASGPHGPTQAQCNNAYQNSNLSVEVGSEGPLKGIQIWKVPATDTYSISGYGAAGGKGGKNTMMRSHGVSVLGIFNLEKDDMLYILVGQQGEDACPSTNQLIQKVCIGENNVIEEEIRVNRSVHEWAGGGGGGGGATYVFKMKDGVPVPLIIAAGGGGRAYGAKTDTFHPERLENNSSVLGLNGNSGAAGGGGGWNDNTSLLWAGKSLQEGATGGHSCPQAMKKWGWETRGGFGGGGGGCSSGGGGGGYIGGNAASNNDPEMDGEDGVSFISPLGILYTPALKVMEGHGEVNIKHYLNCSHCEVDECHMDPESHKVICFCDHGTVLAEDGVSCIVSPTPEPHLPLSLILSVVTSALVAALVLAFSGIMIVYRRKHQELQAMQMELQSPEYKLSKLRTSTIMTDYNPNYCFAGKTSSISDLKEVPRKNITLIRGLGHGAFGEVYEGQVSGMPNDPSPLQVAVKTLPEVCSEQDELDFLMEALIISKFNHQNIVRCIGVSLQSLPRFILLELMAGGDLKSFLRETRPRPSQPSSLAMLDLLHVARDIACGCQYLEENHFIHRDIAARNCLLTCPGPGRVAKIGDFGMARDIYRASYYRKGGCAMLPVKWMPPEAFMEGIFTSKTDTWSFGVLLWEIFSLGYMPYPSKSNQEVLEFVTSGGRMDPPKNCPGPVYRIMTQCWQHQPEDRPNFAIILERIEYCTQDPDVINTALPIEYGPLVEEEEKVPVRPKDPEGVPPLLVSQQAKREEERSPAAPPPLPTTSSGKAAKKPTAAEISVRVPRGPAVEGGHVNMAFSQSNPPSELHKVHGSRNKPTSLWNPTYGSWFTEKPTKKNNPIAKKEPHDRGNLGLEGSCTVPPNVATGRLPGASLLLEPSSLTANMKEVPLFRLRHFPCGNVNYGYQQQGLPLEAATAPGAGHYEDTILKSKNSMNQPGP
T1 sequence (Q9UM73 733-960 limits assumed): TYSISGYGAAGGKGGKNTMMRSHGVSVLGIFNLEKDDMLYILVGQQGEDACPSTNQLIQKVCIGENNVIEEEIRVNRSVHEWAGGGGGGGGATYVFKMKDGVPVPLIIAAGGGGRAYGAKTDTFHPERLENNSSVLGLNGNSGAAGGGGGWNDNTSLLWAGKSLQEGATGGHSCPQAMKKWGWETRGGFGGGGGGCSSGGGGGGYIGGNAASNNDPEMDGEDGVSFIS
Chain of cell surface ALK on SY5Y-D3 cells (Q9UM73 19-1038 limits assumed): as the sequence (Q9UM73 19-1038) above
T2 sequence (Q9UM73 19-1620): as the sequence (Q9UM73 19-1620) above

B1: VH20-OKT3-Fc BiTE (bispecific antibody, part only; not given: anti-CD3 scFv, linkers and Fc, not shown: a dimerising Fc or GST)
chain (part 1 of 2), part: EVQLVESGGGVVQPGRSLRLSCAASGFTFSSYAMHWVRQAPGKGLEWVAAIWYDGSNQYYADSVKGRFTISRDDSTNTLYLQMNSLRAEDTALYYCAKSSYYDSSGYYFPYGYWGQGTLVTVSS
chain (part 2 of 2), part: HHHHHH
- cytotoxicity IC50 (LDH release, activated Pan-T cells, E:T=4:1, 24 hours) [1]: 0.01 nM
- cytotoxicity IC50 on IMR32 cells (LDH release, activated Pan-T cells, E:T=4:1, 24 hours) [2]: 0.1 nM
- cytotoxicity IC50 on SY5Y cells (LDH release, activated Pan-T cells, E:T=4:1, 24 hours) [2]: 0.15 nM

B2: VH20 (other)
VH: EVQLVESGGGVVQPGRSLRLSCAASGFTFSSYAMHWVRQAPGKGLEWVAAIWYDGSNQYYADSVKGRFTISRDDSTNTLYLQMNSLRAEDTALYYCAKSSYYDSSGYYFPYGYWGQGTLVTVSS
notes: Single-domain antibody (isolated VH domain) found by phage panning on the ALK G-rich domain antigen; For the internalization assay it was labelled with pHrodo Deep Red dye
- non-specific binding with 293T cells (293T cells [3]): no significant non-specific binding
- aggregation by DLS [4]: lower aggregation
- oligomeric state by SEC [5]: dimer
- competition with KTN0239-IgG (ALK): not in competition
- binding cell surface ALK on IMR32 cells [6]: capable of binding
- binding cell surface ALK on SY5Y-D3 cells [7]: capable of binding
- binding to SK-N-AS cells (SK-N-AS cells): not
- internalization into 293T-ALK cells (293T-ALK cells [8]): effectively internalized
- non-specific internalization in 293T cells (293T cells [9]): no non-specific internalization was detected
- EC50 [10]: ~0.4 nM
- binding with 293T-ALK cells [11]: good binding

B3: VH78 (other)
VH: EVQLVESGGGVVQPGRSLRLSCAASGFTFSSYAMHWVRQAPGKGLEWMGIIYPGDSDTRYSPSFQGHVTISRDDSTNTLYLQMNSLRAEDTATYYCARERGWQDAFDIWGQGTLVTVSS
notes: Single-domain antibody (isolated VH domain) found with the ALK G-T domain antigen
- non-specific binding with 293T cells (293T cells [3]): no significant non-specific binding
- cytotoxicity of anti-ALK CAR-T cells (293T-ALK cells [12]): greater cytotoxicity
- EC50 [10]: ~1.32 nM
- binding with 293T-ALK cells [11]: good binding
